Measured values published in the supplement of paper PMC10724198.
± gives the standard deviation of the averaged measurements.
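Also: PSI is a weighted mean of sequencing reads over stability bins, variants kept only with over 10 reads, mCherry proximal and sfGFP distal, peptide attached via GGGS linker.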

The sequences below were run on Saccharomyces cerevisiae (assay: protein stability index of tFT-peptide fusion (C-terminal peptide) (PSI (0-1 scale)); higher = more stable (slower turnover)). Conditions: genetic background: wild type; temperature: 30 C.
For PPVISAPIPLAP, the protein stability index was 0.688 ± 0.052. PPVLRTPPAPLI was tested, and the protein stability index was 0.681 ± 0.058. PPVPPPSPPRLL was tested, and the protein stability index was 0.673 ± 0.03. With PPVTAPPPPLRS the protein stability index was 0.692 ± 0.014. PQAQCTALLTQR was tested, and the protein stability index was 0.659 ± 0.085. Sequence PQESRAWTLSSA has a protein stability index of 0.713 ± 0.05. PQPRDSLFSLGN was tested, and the protein stability index was 0.691 ± 0.032. For PQRRPPASTRSD, the protein stability index was 0.682 ± 0.018. In the case of PQRTTPPRRHTA, the protein stability index is reported as 0.717 ± 0.032. With PQTPPSTLLLPP the protein stability index was 0.61 ± 0.1. For PRALSMGGPRYQ, the protein stability index was 0.5929 ± 0.0021. For PRAPPPSPPPRP, the protein stability index was 0.651 ± 0.04. In the case of PRCRSLPPLRVL, the protein stability index is reported as 0.6975 ± 0.0037. Work on PRDTTIPLVLGF yielded a protein stability index of 0.63756 ± 0.00037. PRFFTRYRCYSA showed a protein stability index of 0.793 ± 0.064. PRFGADVQKLVG gave a protein stability index of 0.653 ± 0.045. In the case of PRFPLPPHPSPR, the protein stability index is reported as 0.704 ± 0.03. For PRGKVLPFAFAC, the protein stability index was 0.554 ± 0.019. Sequence PRGLRIHSRLRG has a protein stability index of 0.678 ± 0.01. In the case of PRGPPGILSRPP, the protein stability index is reported as 0.6736 ± 0.00089. PRGSSRSTFFLF was tested, and the protein stability index was 0.603 ± 0.046. Sequence PRHYSPPPVPSR has a protein stability index of 0.686 ± 0.026. For PRIWDLVDIGTL, the protein stability index was 0.735 ± 0.022. With PRLCLVAGRCRS the protein stability index was 0.614 ± 0.04. Sequence PRLFLSICPFSF has a protein stability index of 0.682 ± 0.051. PRLPHPPPFDSL gave a protein stability index of 0.676 ± 0.016. Sequence PRLPHPPPPLPL has a protein stability index of 0.669 ± 0.079. With PRLPPRSPRPPA the protein stability index was 0.7369 ± 0.0048. PRLVFSVSSLGL showed a protein stability index of 0.7 ± 0.038. Sequence PRLVTLALPRTR has a protein stability index of 0.716 ± 0.015. In the case of PRPALRPLPVYP, the protein stability index is reported as 0.612 ± 0.068. Sequence PRPAPPPPSTPP has a protein stability index of 0.6411 ± 0.0051. PRPCSPPPPDPC showed a protein stability index of 0.703 ± 0.022. For PRPFAPPPPPHD, the protein stability index was 0.808 ± 0.094. PRPHPPPLPCPP was tested, and the protein stability index was 0.714 ± 0.04. Work on PRPLASRITSPA yielded a protein stability index of 0.692 ± 0.036. Work on PRPLPPPLPCPP yielded a protein stability index of 0.682 ± 0.015. PRPLPPPPPLST showed a protein stability index of 0.654 ± 0.061. Work on PRPLSPLPPSAL yielded a protein stability index of 0.66 ± 0.05. Work on PRPPAGSFPSSL yielded a protein stability index of 0.7 ± 0.053. In the case of PRPPPPLPPFPP, the protein stability index is reported as 0.6602 ± 0.0011. For PRPPPPPPPLPP, the protein stability index was 0.692 ± 0.03. In the case of PRPPPPRPPFST, the protein stability index is reported as 0.717 ± 0.01. Work on PRPPPPSPIPPL yielded a protein stability index of 0.7265 ± 0.0018. For PRPPSPPADPAP, the protein stability index was 0.744 ± 0.013. Work on PRPPYPRPPPPP yielded a protein stability index of 0.725 ± 0.074. In the case of PRPSFRPPPPLP, the protein stability index is reported as 0.722 ± 0.011. In the case of PRPSPPPVSPRP, the protein stability index is reported as 0.74 ± 0.043. Work on PRRPLSTPTPLV yielded a protein stability index of 0.666 ± 0.049. PRRPPSSLWPYP gave a protein stability index of 0.669 ± 0.044. PRSAPPRRPPTP gave a protein stability index of 0.753 ± 0.075. PRSPPPLPPSSL was tested, and the protein stability index was 0.705 ± 0.029. PRSPPPPLLSPP showed a protein stability index of 0.692 ± 0.037. Work on PRSPPSPPPPPS yielded a protein stability index of 0.641 ± 0.1. PRSPSLPPLFSP showed a protein stability index of 0.718 ± 0.072. For PRSSHHPLPSPP, the protein stability index was 0.676 ± 0.071. In the case of PRSTLLPRSSSC, the protein stability index is reported as 0.654 ± 0.028. With PRSVLGFKMGRF the protein stability index was 0.715 ± 0.065. PRTPAPAPTPRP gave a protein stability index of 0.682 ± 0.017. Work on PRTRLPPQLRLP yielded a protein stability index of 0.694 ± 0.02. PRYKQSSFAFKK showed a protein stability index of 0.669 ± 0.036. PRYSLPTLLSSR showed a protein stability index of 0.678 ± 0.051. With PRYVQPQCLAQR the protein stability index was 0.6721 ± 0.0051. For PSAPPLSHPAPW, the protein stability index was 0.675 ± 0.047. PSAPRHLIPPPI showed a protein stability index of 0.715 ± 0.07. PSAPTNPHARLA gave a protein stability index of 0.689 ± 0.051. Work on PSEAPEAPLPRP yielded a protein stability index of 0.731 ± 0.082. Work on PSELGAGNVMGG yielded a protein stability index of 0.699 ± 0.027. Sequence PSFPSSSCTSPI has a protein stability index of 0.693 ± 0.1. In the case of PSGICVLSPRYG, the protein stability index is reported as 0.7 ± 0.016. Work on PSGLRNAHRHRT yielded a protein stability index of 0.719 ± 0.013. PSGPKAPPHAGR gave a protein stability index of 0.6757 ± 0.0058. PSHPLSLFLLFL was tested, and the protein stability index was 0.58 ± 0.007. Work on PSIPRTSTRPTL yielded a protein stability index of 0.706 ± 0.037. PSIPRTTLLSCN gave a protein stability index of 0.607 ± 0.037. For PSLDCMSIEETT, the protein stability index was 0.679 ± 0.017. With PSLGLSIPTPLP the protein stability index was 0.6849 ± 0.0046. In the case of PSLLFILPSPLP, the protein stability index is reported as 0.689 ± 0.015. PSLPFPPTPPPC was tested, and the protein stability index was 0.686 ± 0.11. PSLPHSRPRTPT was tested, and the protein stability index was 0.707 ± 0.028. In the case of PSLPPVPPPPRP, the protein stability index is reported as 0.71 ± 0.04. In the case of PSLSSHPALLFI, the protein stability index is reported as 0.752 ± 0.038. For PSNPTPLTLLLF, the protein stability index was 0.641 ± 0.017. With PSPAPHIPIFFR the protein stability index was 0.742 ± 0.079. For PSPCPPRPPPSP, the protein stability index was 0.753 ± 0.1. Sequence PSPDLRAPSSVR has a protein stability index of 0.731 ± 0.024. With PSPDPCPLGRTA the protein stability index was 0.629 ± 0.067. In the case of PSPFSPPPPSSP, the protein stability index is reported as 0.736 ± 0.028. With PSPGPPATRPAL the protein stability index was 0.719 ± 0.0036. PSPICFYPLGAS showed a protein stability index of 0.71 ± 0.034. PSPIHSRQTQWF showed a protein stability index of 0.707 ± 0.015. For PSPLPPPPLLPP, the protein stability index was 0.775 ± 0.28. PSPLPRPPPLPL showed a protein stability index of 0.656 ± 0.039. PSPLRDLRSTAL was tested, and the protein stability index was 0.663 ± 0.031. With PSPPFPPPPPPE the protein stability index was 0.717 ± 0.047. PSPPLPPPAPLL was tested, and the protein stability index was 0.718 ± 0.056. PSPPLPPPPSGP was tested, and the protein stability index was 0.677 ± 0.067. With PSPPLPPPYPLP the protein stability index was 0.716 ± 0.084. Work on PSPPLPPRPPTL yielded a protein stability index of 0.743 ± 0.013. With PSPPPLPPLPPF the protein stability index was 0.682 ± 0.029. PSPPPPAPRPPP showed a protein stability index of 0.657 ± 0.03. For PSPPPPGPPLAL, the protein stability index was 0.632 ± 0.033. PSPPPPLAPCLP was tested, and the protein stability index was 0.666 ± 0.038. PSPPPPPPPSVR showed a protein stability index of 0.69 ± 0.042. PSPPPPPPTPAS showed a protein stability index of 0.655 ± 0.024. PSPPPPTPPVRL showed a protein stability index of 0.722 ± 0.11. PSPPPVLLPFFT showed a protein stability index of 0.711 ± 0.08. In the case of PSPPSPPPPPPT, the protein stability index is reported as 0.749 ± 0.06. For PSPPTALCPPPL, the protein stability index was 0.68 ± 0.15. Sequence PSPPVPRPPPSP has a protein stability index of 0.647 ± 0.018. Sequence PSPPVRPPLPPP has a protein stability index of 0.652 ± 0.15. Sequence PSPRPPSPLFPP has a protein stability index of 0.685 ± 0.073. For PSPRSGPPLASP, the protein stability index was 0.6896 ± 0.0012. For PSPRSPPPSPPS, the protein stability index was 0.747 ± 0.12. For PSPSFPPPPLSR, the protein stability index was 0.721 ± 0.073. With PSPSLPGRSASP the protein stability index was 0.727 ± 0.0081. Sequence PSPSPPPPPPGL has a protein stability index of 0.681 ± 0.064. PSPTPTMPPPPP was tested, and the protein stability index was 0.71 ± 0.01. PSRPPGHPAPKP was tested, and the protein stability index was 0.761 ± 0.063. In the case of PSRSLSPSPPFS, the protein stability index is reported as 0.691 ± 0.066. With PSSAHLPPPPPP the protein stability index was 0.673 ± 0.014. PSSAPPGSPGHL gave a protein stability index of 0.701 ± 0.019. For PSSAQKNPNPNT, the protein stability index was 0.701 ± 0.073. With PSSLFPPPPSVL the protein stability index was 0.685 ± 0.029. For PSSLPPLSAPSS, the protein stability index was 0.6829 ± 0.0035. Sequence PSSPPCPPPLPS has a protein stability index of 0.624 ± 0.02. For PSSPPPPPPPPH, the protein stability index was 0.71 ± 0.0097. PSSPPSLPSPLP gave a protein stability index of 0.691 ± 0.065. In the case of PSSPPSSTSPPL, the protein stability index is reported as 0.633 ± 0.16. Work on PSSPSPPYPFAP yielded a protein stability index of 0.684 ± 0.016. In the case of PSSRSASSSSPA, the protein stability index is reported as 0.705 ± 0.043. In the case of PSSSPPLLPPPA, the protein stability index is reported as 0.638 ± 0.026. Work on PSTLQPLQRSPR yielded a protein stability index of 0.617 ± 0.0014. PSVLPSSCTPSP was tested, and the protein stability index was 0.663 ± 0.03. Sequence PSWLPLPLLFLV has a protein stability index of 0.416 ± 0.18. With PSYTSYFVGLST the protein stability index was 0.48 ± 0.11. With PTDVVCVSGHGS the protein stability index was 0.748 ± 0.076. With PTFPPPPRTPPS the protein stability index was 0.719 ± 0.017. PTFRSRPFPPHP showed a protein stability index of 0.703 ± 0.032. In the case of PTGCPPGVTPCL, the protein stability index is reported as 0.681 ± 0.022. For PTLGDPSVLLLL, the protein stability index was 0.69 ± 0.022. In the case of PTLSPSPLAPLS, the protein stability index is reported as 0.6635 ± 0.0018. Work on PTNQHNLEQRPE yielded a protein stability index of 0.667 ± 0.05. For PTPLSPRNTILR, the protein stability index was 0.726 ± 0.1. Sequence PTPPLPLPRPLP has a protein stability index of 0.688 ± 0.037. In the case of PTPPNSPRPPTP, the protein stability index is reported as 0.63 ± 0.12. For PTPPPLLTRPLP, the protein stability index was 0.709 ± 0.11. Work on PTSLPAPPRLPF yielded a protein stability index of 0.713 ± 0.023. PTSPPPPLPPPS showed a protein stability index of 0.7066 ± 0.0036. PTVLCTGKCLRS showed a protein stability index of 0.635 ± 0.044. For PVAGSAGVRNLP, the protein stability index was 0.671 ± 0.012. Work on PVAGTLDVHYRV yielded a protein stability index of 0.7098 ± 0.0063. With PVAPKPTGAKTP the protein stability index was 0.661 ± 0.06. In the case of PVCDPCSKATLL, the protein stability index is reported as 0.687 ± 0.015. PVDAAPCSPSGL gave a protein stability index of 0.663 ± 0.041. PVDPPEDLNTRS gave a protein stability index of 0.7098 ± 0.0064. Work on PVFSHTDSRYRP yielded a protein stability index of 0.681 ± 0.09. PVGFPLPCPFFT gave a protein stability index of 0.688 ± 0.035. PVKTHPPPPPLP showed a protein stability index of 0.724 ± 0.024. Work on PVLELTLILRRS yielded a protein stability index of 0.6304 ± 0.0023.
